Entries after “also recorded” stand apart in the source; their conditions may differ.
Legend:
SDC2 secretion = SDC2 secretion after environmental toxin BPDE; format: cell-based, human; details: 600 nM BPDE
SDC2 RNA = SDC2 RNA levels in treated cell populations; format: cell-based, human
Source text: HDAC inhibitors and sirtuins may be used to increase SDC2 expression. […] The sirtuin family of HDACs, including SIRT1 and SIRT2, may be used to increase SDC2 expression. The sirtuins are NAD-dependant HDACs and are reported to deacetylate p53 protein—acetylation of p53 is reported to be important for its transactivation/transcription activity. Thus sirtuins are key regulators of p53 activity. Examples of sirtuins include nicotinamide, sirtinol, EX-527 and tenovins. […] DMSO is also reported to contain HDAC inhibitor (p53 activation) capacity.
DMOG is a hypoxia mimetic, and other hypoxia mimetics for use in the invention include cobalt chloride, EDHB and desferrioxamine. Hypoxia is reported to stimulate p53 (via ATR/CHK1 kinases).
We tested various HDAC inhibitors for their effect on SDC2 expression on human cell populations initially isolated on the basis of SDC2 expression and maintained subsequently in culture.

[1] = test system: SDC2 shedding from human MSCs; assay: SDC2 ELISA of supernatants of Nutlin-3a treated MSCs; format: cell-based; details: 24 h
Protocol: MSCs were plated at a density of 10^5 cells per well of a 6-well plate (Nunc) in complete media (α-MEM, 10% FBS) and left to adhere overnight. Medium was then exchanged for serum-free containing Nutlin-3a or DMSO as a carrier control. 24 h post-induction the cells were harvested for both RNA and protein and the serum-free supernatant was collected for ELISA.
The levels of human Syndecan-2 was measured in supernatants collected from hMSCs using commercially available ELISA assays (CUSABIO). The assay was conducted as per the manufacturer's instructions. Calibration curves were prepared using purified standards for SDC2. Curve fitting was accomplished by sigmoidal logisitic regression following manufacturer's instructions.
24 h post-treatment with Nutlin-3a (5, 10, 20 μM) or DMSO carrier control (5, 20 μM), the supernatant from MSCs was collected, centrifuged for 5 min at 1500 rpm and subjected to SDC2 ELISA including unconditioned serum-free media as an additional control.
MSCs treated with either Nutlin-3a or DMSO as a carrier control for 24 h in serum-free media. The serum-free supernatants were collected and a commercially available SDC2 ELISA kit was used to detect shed SDC2 present in the supernatants.

Du145 = assay: Cancer cell migration toward conditioned medium (xCELLigence RTCA); format: cell-based; details: Recombinant SDC2 500 ng/ml
Source text: (§1) Cell migration is a critical parameter for in vitro cell culture-related studies. It is necessary to monitor the dynamic changes of cell populations under different conditions. Using a real time cell analyser (RTCA, xCELLigence, Roche) which is an impedance-based device we can monitor the following properties in real time: proliferation, migration and cell adherence. Such properties are involved in cancer evolution. We used this method to establish the migratory capacity of cancer cells toward conditioned medium. The model is accepted as predictive of efficacy in cancer therapy—reduced migration in the model indicates anti-cancer properties.
(§2) In our investigations, cell migration was determined using 16-well CIM plates read in real-time using the aforementioned xCELLigence device. For these studies a variety of cancer cell lines were used from breast cancer (MDA-MB-231, MDA-MB-486, MCF-10A), prostate cancer (DU145), pancreas cancer (SU-86-86) and colon carcinoma (HCT116).

MDA-MB-231 = assay: as above; format: cell-based; details: one symbol per experiment
Source text: as §1, §2

SU-86-86 = assay: as above; format: cell-based
Source text: as §1, §2

HCT116 = assay: as above; format: cell-based; parameters: key: ↑: increased migration compared to conditioned media; ↓: decreased cell migration compared to conditioned media; —: no changed compared to conditioned media
Source text: as §1, §2

[2] = test system: NFκB activation by TNFα and IL1β; assay: κB luciferase assay in A549 cells pretreated with SDC2 recombinant protein; format: cell-based; details: 10 ng/mL TNF-α/IL-1β, 24 hours
Protocol: A549 cells stably transduced with κB luciferase plasmid were pretreated for 1 hour with SDC2 recombinant protein. 10 ng/mL TNF-α/IL-1β was added to the media and luciferase assay performed after 24 hours. The results are shown in FIG. 5. ***=p<0.0001 with respect to 0 ng/mL S2
A549 cells stably transduced with KB luciferase plasmid and treated for 24 hours with recombinant SDC2. In the top panel: cytokines were added to the media for 24 hours and luciferase assay performed. In the bottom panel: media was replaced before addition of cytokines for 24 hours. *=p<0.01 with respect to 0 ng/mL S2; ***=p<0.0001 with respect to 0 ng/mL S2; +++=p<0.0001 with respect to 100 ng/mL S2.

[3] = at 24 hrs, human cell populations isolated on SDC2 expression
[4] = other series of tests, time not given

OC1c2cc3ccc4cccc5ccc(c2C2OC2C1O)c3c45 (stereo not drawn) [BPDE, benzo[a]pyrene-7,8-diol-9,10-epoxide]
increase of SDC2 secretion (SDC2 secretion): approximately 3 fold

2-pyrrolidinone-n-butyric acid [PBA]
SDC2 RNA levels (SDC2 RNA; [3]): increased SDC2 RNA levels

COC(=O)CNC(=O)C(=O)OC [DMOG, Dimethyloxaloylglycine]
SDC2 RNA levels (SDC2 RNA; [4]): very robust increase in SDC2 RNA

O=C1CCc2c(ccc3ccccc23)O1 [Splitomicin]
SDC2 RNA levels (SDC2 RNA; [3]): increased SDC2 RNA levels; also recorded: greatest stimulation

CCCC(CCC)C(=O)O [Valproic Acid]
SDC2 RNA levels (SDC2 RNA; [3]): increased SDC2 RNA levels

COc1ccc(C2=N[C@@H](c3ccc(Cl)cc3)[C@@H](c3ccc(Cl)cc3)N2C(=O)N2CCNC(=O)C2)c(OC(C)C)c1 [Nutlin-3a]
SDC2 shedding ([1]; 5, 10, 20 μM, compared to DMSO control): dose-dependent increase in SDC2 shedding
amount of shed SDC2 ([1]; Nutlin-3a 20 μM, serum-free, average of three MSC donors): ~1000 pg/mL

C[S+](C)[O-] [DMSO]
SDC2 RNA levels (SDC2 RNA; [4]): increased SDC2 RNA levels

B1: Recombinant SDC2: recombinant Syndecan-2 (SDC2) protein (protein, UniProt P34741 19-201, looked up)
Syndecan-2: ESRAELTSDKDMYLDNSSIEEASGVYPIDDDDYASASGSGADEDVESPELTTSRPLPKILLTSAAPKVETTTLNIQNKIPAQTKSPEETDKEKVHLSDSERKMDPAEEDTNVYTEKHSDSLFKRTEVLAAVIAGGVIGFLFAIFLILLLVYRMRKKDEGSYDLGERKPSSAAYQKAPTKEFYA
Cancer Cell Migration (Du145): ↓—
Cancer Cell Migration (MDA-MB-231; Recombinant SDC2 100 ng/ml): ↓↓
Cancer Cell Migration (MDA-MB-231; Recombinant SDC2 500 ng/ml): ↓↓↓↓↓—
Cancer Cell Migration (SU-86-86; Recombinant SDC2 100 ng/ml): ↓↑
Cancer Cell Migration (SU-86-86; Recombinant SDC2 500 ng/ml): ↓↓
Cancer Cell Migration (SU-86-86; Recombinant SDC2 1000 ng/ml): ↓↑
Cancer Cell Migration (HCT116; Recombinant SDC2 100 ng/ml): ↓
Cancer Cell Migration (HCT116; Recombinant SDC2 500 ng/ml): ↓
Cancer Cell Migration (HCT116; Recombinant SDC2 1000 ng/ml): ↓
NFκB activation by TNFα and IL1β [2]: suppressed NFκB activation

Reference: patent US11026994B2, “Syndecan-2 compositions and methods of use” (ORBSEN THERAPEUTICS LIMITED, priority 2013, dated 2021)
